Results from patent US20230220068A1 (CODIAK BIOSCIENCES, published 2023).

Biological target: T1, PrX (human, UniProt Q9P2B2)
T1 construct: also called PTGFRN overexpressing exosomes
T1 sequence (scaffold on exosomes, looked up): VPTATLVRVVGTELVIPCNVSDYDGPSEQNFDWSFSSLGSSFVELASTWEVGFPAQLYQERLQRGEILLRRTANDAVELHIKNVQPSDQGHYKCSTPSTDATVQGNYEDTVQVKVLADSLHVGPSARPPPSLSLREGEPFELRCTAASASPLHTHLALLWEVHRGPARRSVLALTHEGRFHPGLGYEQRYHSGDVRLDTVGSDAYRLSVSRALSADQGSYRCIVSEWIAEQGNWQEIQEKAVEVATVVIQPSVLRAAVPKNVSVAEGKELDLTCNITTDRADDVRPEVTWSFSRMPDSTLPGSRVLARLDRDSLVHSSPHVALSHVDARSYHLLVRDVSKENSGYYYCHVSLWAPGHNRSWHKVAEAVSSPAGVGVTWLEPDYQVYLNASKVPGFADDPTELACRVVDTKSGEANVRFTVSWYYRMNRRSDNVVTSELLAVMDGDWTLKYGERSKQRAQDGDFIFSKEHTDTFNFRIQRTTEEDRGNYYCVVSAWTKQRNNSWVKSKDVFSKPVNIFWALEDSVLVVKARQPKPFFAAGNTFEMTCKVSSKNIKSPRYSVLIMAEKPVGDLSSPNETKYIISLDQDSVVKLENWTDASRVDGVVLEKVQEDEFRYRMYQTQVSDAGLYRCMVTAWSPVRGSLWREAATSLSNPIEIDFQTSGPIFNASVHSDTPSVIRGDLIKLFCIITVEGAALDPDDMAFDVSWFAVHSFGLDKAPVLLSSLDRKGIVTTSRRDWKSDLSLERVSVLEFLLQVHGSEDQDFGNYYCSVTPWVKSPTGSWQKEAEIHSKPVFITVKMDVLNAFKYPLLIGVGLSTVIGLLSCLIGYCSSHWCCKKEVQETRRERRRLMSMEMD
Assay: Octet, exosomes on mouse SIRPα

binding result: no binding
B1: mouse SIRPα (receptor, UniProt P97797 32-373, looked up)
chain: KELKVTQPEKSVSVAAGDSTVLNCTLTSLLPVGPIRWYRGVGPSRLLIYSFAGEYVPRIRNVSDTTKRNNMDFSIRISNVTPADAGIYYCVKFQKGSSEPDTEIQSGGGTEVYVLAKPSPPEVSGPADRGIPDQKVNFTCKSHGFSPRNITLKWFKDGQELHPLETTVNPSGKNVSYNISSTVRVVLNSMDVNSKVICEVAHITLDRSPLRGIANLSNFIRVSPTVKVTQQSPTSMNQVNLTCRAERFYPEDLQLIWLENGNVSRNDTPKNLTKNTDGTYNYTSLFLVNSSAHREDVVFTCQVKHDQQPAITRNHTVLGFAHSSDQGSMQTFPDNNATHNWN
